# Key:
# O=Cc1ccc(CO)o1 = test system: T1, O=Cc1ccc(CO)o1; experiment: purified protein; type: biochemical, Methylovorus sp. MP688; conditions: 50 mM phosphate pH 8.0, 25 °C, O2 as electron acceptor
# T1 construct: full-length, N-terminal His6x-SUMO fusion kept, recombinant from E. coli (pET SUMO / pBAD SUMO), FAD-containing
# purified protein = substrate: O=Cc1ccc(CO)o1; experiment: purified protein; conditions: 50 mM phosphate pH 8.0, 25 °C, O2 as electron acceptor
Molecule,Km (O=Cc1ccc(CO)o1) [µM],kcat (O=Cc1ccc(CO)o1) [s⁻¹],kcat/Km (O=Cc1ccc(CO)o1) [M⁻¹ s⁻¹],Km (purified protein) [µM],kcat (purified protein) [s⁻¹],kcat/Km (purified protein) [M⁻¹ s⁻¹]
HMFO (HMF oxidase) (Methylovorus sp. MP688; A419Y/A435E/G356H/H74Y/I73V/T414K/V367L),630,11.8,18700,–,–,–
HMFO (HMF oxidase) (Methylovorus sp. MP688) (protein) MTDTIFDYVIVGGGTAGSVLANRLSARPENRVLLIEAGIDTPENNIPPEIHDGLRPWLPRLSGDKFFWPNLTIHRAAEHPGITREPQFYEQGRLLGGGSSVNMVVSNRGLPRDYDEWQALGADGWDWQGVLPYFIKTERDADYGDDPLHGNAGPIPIGRVDSRHWSDFTVAATQALEAAGLPNIHDQNARFDDGYFPPAFTLKGEERFSAARGYLDASVRVRPNLSLWTESRVLKLLTTGNAITGVSVLRGRETLQVQAREVILTAGALQSPAILLRTGIGPAADLHALGIPVLADRPGVGRNLWEHSSIGVVAPLTEQARADASTGKAGSRHQLGIRASSGVDPATPSDLFLHIGADPVSGLASAVFWVNKPSSTGWLKLKDADPFSYPDVDFNLLSDPRDLGRLKAGLRLITHYFAAPSLAKYGLALALSRFAAPQPGGPLLNDLLQDEAALERYLRTNVGGVWHASGTARIGRADDSQAVVDKAGRVYGVTGLRVADASIMPTVPTANTNLPTLMLAEKIADAILTQA,–,–,–,1520,13.7,9030
